# Laboratory results published in IntAct's records for PubMed 24976139.
# B1: Tyrosine-protein phosphatase non-receptor type 1 (Homo sapiens), P18031 (parent)
# chain: MEMEKEFEQIDKSGSWAAIYQDIRHEASDFPCRVAKLPKNKNRNRYRDVSPFDHSRIKLHQEDNDYINASLIKMEEAQRSYILTQGPLPNTCGHFWEMVWEQKSRGVVMLNRVMEKGSLKCAQYWPQKEEKEMIFEDTNLKLTLISEDIKSYYTVRQLELENLTTQETREILHFHYTTWPDFGVPESPASFLNFLFKVRESGSLSPEHGPVVVHCSAGIGRSGTFCLADTCLLLMDKRKDPSSVDIKKVLLEMRKFRMGLIQTADQLRFSYLAVIEGAKFIMGDSSVQDQWKELSHEDLEPPPEHIPPPPRPPKRILEPHNGKCREFFPNHQWVKEETQEDKDCPIKEEKGSPLNAAPYGIESMSQDTEVRSRVVGGSLRGAQAASPAKGEPSLPEKDEDHALSYWKPFLVNMCVATVLTAGAYLCYRFLFNSNT
# partner: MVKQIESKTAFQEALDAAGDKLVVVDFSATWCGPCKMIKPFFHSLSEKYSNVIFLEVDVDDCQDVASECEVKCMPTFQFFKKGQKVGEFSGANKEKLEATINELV
# Variants of: B1
# Conditions: with thio_human TXN
row,Variant,effect of a mutation on the interaction
1,MEMEKEFEQIDKSGSWAAIYQDIRHEASDFPCRVAKLPKNKNRNRYRDVSPFDHSRIKLHQEDNDYINASLIKMEEAQRSYILTQGPLPNTCGHFWEMVWEQKSRGVVMLNRVMEKGSLKCAQYWPQKEEKEMIFEDTNLKLTLISEDIKSYYTVRQLELENLTTQETREILHFHYTTWPDFGVPESPASFLNFLFKVRESGSLSPEHGPVVVHAAAGIGRSGTFCLADTCLLLMDKRKDPSSVDIKKVLLEMRKFRMGLIQTADQLRFSYLAVIEGAKFIMGDSSVQDQWKELSHEDLEPPPEHIPPPPRPPKRILEPHNGKCREFFPNHQWVKEETQEDKDCPIKEEKGSPLNAAPYGIESMSQDTEVRSRVVGGSLRGAQAASPAKGEPSLPEKDEDHALSYWKPFLVNMCVATVLTAGAYLCYRFLFNSNT [C215A;S216A],disrupting interaction
